# Measurements from patent CN115028713A (JIANGSU DONGKANG BIOMEDICAL TECH CO LTD, dated 2022).
# B1: 单克隆抗体OP2 (anti-SARS-CoV-2 N protein monoclonal antibody OP2) (antibody, V domains shown)
# VH: DVQLVESGGGLVQPGGSRKLSCAASGSTFSNFGMHWVRQAPEKGLEWVAYISSASSIIYYADTVKGRFTISRDNPKNTLFLQMTSLRSEDTAMYYCARSAMDYWGQGTSVTVSS
# VL: DIVLTQSPASLAVSLGQRATISCKASQSVNYSGDSYMNWFQQKPGQPPKLLIYAASNLESGIPARFSGSGSGTDFTLNIHPVEEEDAATYYCQQSEEQPYTFGGGTKLEIK
# notes: also called 抗N蛋白的抗体
# Target: 重组新冠N蛋白 N-HIS6X (recombinant SARS-CoV-2 N protein with His6 tag) (SARS-CoV-2, UniProt P0DTC9 1-419)
binder,measurement,value
B1,EC50,0.0113 µg/mL
